Earlier results in article PMC4023866.

Biological target: GAPDH (Homo sapiens) (UniProt P04406)

For NleB (from UniProt B7UI21), the Kd is listed as 36 µM.
